Laboratory results taken from PMC10440358 (Biochemistry and Biophysics Reports, 2023).

B1: Human tryptophan hydroxylase 2, full-length wild type (enzyme, UniProt Q8IWU9 1-490, looked up)
chain: MQPAMMMFSSKYWARRGFSLDSAVPEEHQLLGSSTLNKPNSGKNDDKGNKGSSKREAATESGKTAVVFSLKNEVGGLVKALRLFQEKRVNMVHIESRKSRRRSSEVEIFVDCECGKTEFNELIQLLKFQTTIVTLNPPENIWTEEEELEDVPWFPRKISELDKCSHRVLMYGSELDADHPGFKDNVYRQRRKYFVDVAMGYKYGQPIPRVEYTEEETKTWGVVFRELSKLYPTHACREYLKNFPLLTKYCGYREDNVPQLEDVSMFLKERSGFTVRPVAGYLSPRDFLAGLAYRVFHCTQYIRHGSDPLYTPEPDTCHELLGHVPLLADPKFAQFSQEIGLASLGASDEDVQKLATCYFFTIEFGLCKQEGQLRAYGAGLLSSIGELKHALSDKACVKAFDPKTTCLQECLITTFQEAYFVSESFEEAKEKMRDFAKSITRPFSVYFNPYTQSIEILKDTRSIENVVQDLRSDLNTVCDALNKMNQYLGI
B2: Human tryptophan hydroxylase 2, full-length A328V variant (rs2887147) (enzyme, UniProt Q8IWU9 1-490, looked up)
chain: MQPAMMMFSSKYWARRGFSLDSAVPEEHQLLGSSTLNKPNSGKNDDKGNKGSSKREAATESGKTAVVFSLKNEVGGLVKALRLFQEKRVNMVHIESRKSRRRSSEVEIFVDCECGKTEFNELIQLLKFQTTIVTLNPPENIWTEEEELEDVPWFPRKISELDKCSHRVLMYGSELDADHPGFKDNVYRQRRKYFVDVAMGYKYGQPIPRVEYTEEETKTWGVVFRELSKLYPTHACREYLKNFPLLTKYCGYREDNVPQLEDVSMFLKERSGFTVRPVAGYLSPRDFLAGLAYRVFHCTQYIRHGSDPLYTPEPDTCHELLGHVPLLVDPKFAQFSQEIGLASLGASDEDVQKLATCYFFTIEFGLCKQEGQLRAYGAGLLSSIGELKHALSDKACVKAFDPKTTCLQECLITTFQEAYFVSESFEEAKEKMRDFAKSITRPFSVYFNPYTQSIEILKDTRSIENVVQDLRSDLNTVCDALNKMNQYLGI
B3: NΔ150-hTPH2, wild type (human tryptophan hydroxylase 2 lacking the N-terminal 150 amino acid regulatory domain) (domain or fragment)
chain: not shown
B4: NΔ150-hTPH2 A328E (domain or fragment)
chain: not shown
B5: NΔ150-hTPH2 A328V (domain or fragment)
chain: not shown

Target: the molecule itself
Assay: SEC

Stoichiometry N, 4:
B1
B2
B3
B4
B5
